Here are results for one molecule from publication PMC3910249 (Molecular cell, 2013).

The experiment addresses T1, FtsY NG domain (SRP receptor FtsY, residues 196-498) (E. coli, UniProt P10121 196-497).
T1 sequence (looked up): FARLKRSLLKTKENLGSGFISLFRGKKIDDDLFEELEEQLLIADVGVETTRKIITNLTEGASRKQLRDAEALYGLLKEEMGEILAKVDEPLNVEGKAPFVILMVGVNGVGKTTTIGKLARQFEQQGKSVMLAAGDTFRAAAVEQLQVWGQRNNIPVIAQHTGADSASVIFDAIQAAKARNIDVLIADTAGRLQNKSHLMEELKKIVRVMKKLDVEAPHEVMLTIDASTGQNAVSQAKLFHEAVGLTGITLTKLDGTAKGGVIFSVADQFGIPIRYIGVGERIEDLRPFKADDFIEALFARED
Put plainly: SEC. A general note: SEC sorts molecules by how far they enter the pores of the column.

B1: Ffh NG domain (signal recognition particle protein Ffh, residues 1-298) (domain or fragment, E. coli, UniProt P0AGD7 1-298, looked up)
chain: MFDNLTDRLSRTLRNISGRGRLTEDNVKDTLREVRMALLEADVALPVVREFINRVKEKAVGHEVNKSLTPGQEFVKIVRNELVAAMGEENQTLNLAAQPPAVVLMAGLQGAGKTTSVGKLGKFLREKHKKKVLVVSADVYRPAAIKQLETLAEQVGVDFFPSDVGQKPVDIVNAALKEAKLKFYDVLLVDTAGRLHVDEAMMDEIKQVHASINPVETLFVVDAMTGQDAANTAKAFNEALPLTGVVLTKVDGDARGGAALSIRHITGKPIKFLGVGEKTEALEPFHPDRIASRILGMG
As to B1, the binding result is given as “binds”.
